Assays:
Assay in all cases: cell-based or functional assay
[1] = target: T1, gH/gL/gO trimer of HCMV TB40-BAC4 (human cytomegalovirus, strain TB40/E …)
[2] = target: T1, gH/gL/gO trimer of HCMV TB40-BAC4; remark: listed apart in the source
[3] = target: PDGF-BB (UniProt P01127 82-190, NT-647 dye on amines (amine reactive labelling kit RED-NHS) in the MST experiments; unlabelled in the signalling assays)
[4] = target: T1, gH/gL/gO trimer of HCMV TB40-BAC4; remark: listed apart in the source

B1: PDGFRα-Fc wild type (Fc fusion)
chain: QLSLPSILPNENEKVVQLNSSFSLRCFGESEVSWQYPMSEEESSDVEIRNEENNSGLFVTVLEVSSASAAHTGLYTCYYNHTQTEENELEGRHIYIYVPDPDVAFVPLGMTDYLVIVEDDDSAIIPCRTTDPETPVTLHNSEGVVPASYDSRQGFNGTFTVGPYICEATVKGKKFQTIPFNVYALKATSELDLEMEALKTVYKSGETIVVTCAVFNNEVVDLQWTYPGEVKGKGITMLEEIKVPSIKLVYTLTVPEATVKDSGDYECAARQATREVKEMKKVTISVHEKGFIEIKPTFSQLEAVNLHEVKHFVVEVRAYPPPRISWLKNNLTLIENLTEITTDVEKIQEIRYRSKLKLIRAKEEDSGHYTIVAQNEDAVKSYTFELLTQVPSSILDLVDDHHGSTGGQTVRCTAEGTPLPDIEWMICKDIKKCNNETSWTILANNVSNIITEIHSRDRSTVEGRVTFAKVEETIAVRCLAKNLLGAENRELKLVAPTLRSELTVA
HCMV inhibition EC50 (Table 2; differs from Table 1) [1]: 0.0046 µg/mL
HCMV inhibition EC50 (TB40-BAC4-IE-GLuc, fibroblasts, immediate-early antigen staining) [2]: 0.0056 µg/mL
EC50 for inhibition of PDGF signaling (6 ng/ml PDGF-BB, phospho-Akt ELISA, fibroblasts) [3]: 0.013 µg/mL
EC50 of inhibition of HCMV TB40-BAC4-IE-GLuc infection of fibroblasts (Gaussia luciferase read-out) [4]: < 0.02 µg/mL
EC50 of inhibition of HCMV TB40-BAC4 infection of fibroblasts and of endothelial cells (immediate-early antigen staining) [4]: ~0.01 µg/mL

B2: PDGFRα-Fc I139E + V242K (Fc fusion)
chain: QLSLPSILPNENEKVVQLNSSFSLRCFGESEVSWQYPMSEEESSDVEIRNEENNSGLFVTVLEVSSASAAHTGLYTCYYNHTQTEENELEGRHIYIYVPDPDVAFVPLGMTDYLVEVEDDDSAIIPCRTTDPETPVTLHNSEGVVPASYDSRQGFNGTFTVGPYICEATVKGKKFQTIPFNVYALKATSELDLEMEALKTVYKSGETIVVTCAVFNNEKVDLQWTYPGEVKGKGITMLEEIKVPSIKLVYTLTVPEATVKDSGDYECAARQATREVKEMKKVTISVHEKGFIEIKPTFSQLEAVNLHEVKHFVVEVRAYPPPRISWLKNNLTLIENLTEITTDVEKIQEIRYRSKLKLIRAKEEDSGHYTIVAQNEDAVKSYTFELLTQVPSSILDLVDDHHGSTGGQTVRCTAEGTPLPDIEWMICKDIKKCNNETSWTILANNVSNIITEIHSRDRSTVEGRVTFAKVEETIAVRCLAKNLLGAENRELKLVAPTLRSELTVA
HCMV inhibition EC50 (fibroblasts, immediate-early antigen staining) [4]: 0.027 µg/mL

B3: PDGFRα-Fc Y206S + V242K (Fc fusion)
chain: QLSLPSILPNENEKVVQLNSSFSLRCFGESEVSWQYPMSEEESSDVEIRNEENNSGLFVTVLEVSSASAAHTGLYTCYYNHTQTEENELEGRHIYIYVPDPDVAFVPLGMTDYLVIVEDDDSAIIPCRTTDPETPVTLHNSEGVVPASYDSRQGFNGTFTVGPYICEATVKGKKFQTIPFNVSALKATSELDLEMEALKTVYKSGETIVVTCAVFNNEKVDLQWTYPGEVKGKGITMLEEIKVPSIKLVYTLTVPEATVKDSGDYECAARQATREVKEMKKVTISVHEKGFIEIKPTFSQLEAVNLHEVKHFVVEVRAYPPPRISWLKNNLTLIENLTEITTDVEKIQEIRYRSKLKLIRAKEEDSGHYTIVAQNEDAVKSYTFELLTQVPSSILDLVDDHHGSTGGQTVRCTAEGTPLPDIEWMICKDIKKCNNETSWTILANNVSNIITEIHSRDRSTVEGRVTFAKVEETIAVRCLAKNLLGAENRELKLVAPTLRSELTVA
HCMV inhibition EC50 (fibroblasts, immediate-early antigen staining) [4]: 0.047 µg/mL

B4: PDGFRα-Fc I139A + Y206A (Fc fusion)
chain: QLSLPSILPNENEKVVQLNSSFSLRCFGESEVSWQYPMSEEESSDVEIRNEENNSGLFVTVLEVSSASAAHTGLYTCYYNHTQTEENELEGRHIYIYVPDPDVAFVPLGMTDYLVAVEDDDSAIIPCRTTDPETPVTLHNSEGVVPASYDSRQGFNGTFTVGPYICEATVKGKKFQTIPFNVAALKATSELDLEMEALKTVYKSGETIVVTCAVFNNEVVDLQWTYPGEVKGKGITMLEEIKVPSIKLVYTLTVPEATVKDSGDYECAARQATREVKEMKKVTISVHEKGFIEIKPTFSQLEAVNLHEVKHFVVEVRAYPPPRISWLKNNLTLIENLTEITTDVEKIQEIRYRSKLKLIRAKEEDSGHYTIVAQNEDAVKSYTFELLTQVPSSILDLVDDHHGSTGGQTVRCTAEGTPLPDIEWMICKDIKKCNNETSWTILANNVSNIITEIHSRDRSTVEGRVTFAKVEETIAVRCLAKNLLGAENRELKLVAPTLRSELTVA
HCMV inhibition EC50 (TB40-BAC4-IE-GLuc, fibroblasts, immediate-early antigen staining) [2]: 0.0198 µg/mL

B5: PDGFRα-Fc Y206S (Fc fusion)
chain: QLSLPSILPNENEKVVQLNSSFSLRCFGESEVSWQYPMSEEESSDVEIRNEENNSGLFVTVLEVSSASAAHTGLYTCYYNHTQTEENELEGRHIYIYVPDPDVAFVPLGMTDYLVIVEDDDSAIIPCRTTDPETPVTLHNSEGVVPASYDSRQGFNGTFTVGPYICEATVKGKKFQTIPFNVSALKATSELDLEMEALKTVYKSGETIVVTCAVFNNEVVDLQWTYPGEVKGKGITMLEEIKVPSIKLVYTLTVPEATVKDSGDYECAARQATREVKEMKKVTISVHEKGFIEIKPTFSQLEAVNLHEVKHFVVEVRAYPPPRISWLKNNLTLIENLTEITTDVEKIQEIRYRSKLKLIRAKEEDSGHYTIVAQNEDAVKSYTFELLTQVPSSILDLVDDHHGSTGGQTVRCTAEGTPLPDIEWMICKDIKKCNNETSWTILANNVSNIITEIHSRDRSTVEGRVTFAKVEETIAVRCLAKNLLGAENRELKLVAPTLRSELTVA
HCMV inhibition EC50 (TB40-BAC4-IE-GLuc, fibroblasts, immediate-early antigen staining) [2]: 0.0311 µg/mL

B6: PDGFRα-Fc I139E + Y206S (Fc fusion)
chain: QLSLPSILPNENEKVVQLNSSFSLRCFGESEVSWQYPMSEEESSDVEIRNEENNSGLFVTVLEVSSASAAHTGLYTCYYNHTQTEENELEGRHIYIYVPDPDVAFVPLGMTDYLVEVEDDDSAIIPCRTTDPETPVTLHNSEGVVPASYDSRQGFNGTFTVGPYICEATVKGKKFQTIPFNVSALKATSELDLEMEALKTVYKSGETIVVTCAVFNNEVVDLQWTYPGEVKGKGITMLEEIKVPSIKLVYTLTVPEATVKDSGDYECAARQATREVKEMKKVTISVHEKGFIEIKPTFSQLEAVNLHEVKHFVVEVRAYPPPRISWLKNNLTLIENLTEITTDVEKIQEIRYRSKLKLIRAKEEDSGHYTIVAQNEDAVKSYTFELLTQVPSSILDLVDDHHGSTGGQTVRCTAEGTPLPDIEWMICKDIKKCNNETSWTILANNVSNIITEIHSRDRSTVEGRVTFAKVEETIAVRCLAKNLLGAENRELKLVAPTLRSELTVA
HCMV inhibition EC50 (TB40-BAC4-IE-GLuc, fibroblasts, immediate-early antigen staining) [2]: 0.0252 µg/mL

B7: PDGFRα-Fc I139E (Fc fusion)
chain: QLSLPSILPNENEKVVQLNSSFSLRCFGESEVSWQYPMSEEESSDVEIRNEENNSGLFVTVLEVSSASAAHTGLYTCYYNHTQTEENELEGRHIYIYVPDPDVAFVPLGMTDYLVEVEDDDSAIIPCRTTDPETPVTLHNSEGVVPASYDSRQGFNGTFTVGPYICEATVKGKKFQTIPFNVYALKATSELDLEMEALKTVYKSGETIVVTCAVFNNEVVDLQWTYPGEVKGKGITMLEEIKVPSIKLVYTLTVPEATVKDSGDYECAARQATREVKEMKKVTISVHEKGFIEIKPTFSQLEAVNLHEVKHFVVEVRAYPPPRISWLKNNLTLIENLTEITTDVEKIQEIRYRSKLKLIRAKEEDSGHYTIVAQNEDAVKSYTFELLTQVPSSILDLVDDHHGSTGGQTVRCTAEGTPLPDIEWMICKDIKKCNNETSWTILANNVSNIITEIHSRDRSTVEGRVTFAKVEETIAVRCLAKNLLGAENRELKLVAPTLRSELTVA
HCMV inhibition EC50 (TB40-BAC4-IE-GLuc, fibroblasts, immediate-early antigen staining) [2]: 0.0328 µg/mL
EC50 for inhibition of PDGF signaling (6 ng/ml PDGF-BB, phospho-Akt ELISA, fibroblasts); the paper says incomplete inhibition precludes a precise value [3]: ~2 µg/mL

Reference: publication PMC8031885, “Targeted mutagenesis on PDGFRα-Fc identifies amino acid modifications that allow efficient inhibition of HCMV infection while abolishing PDGF sequestration” (PLoS Pathogens, 2021)
